Results taken from the supplement of paper PMC12042874.
± gives the uncertainty stated by the source.

Assay: amyloid nucleation score (Sup35N fusion, yeast selection) (log enrichment); library NNK3; higher = more nucleation; inactive = no reads after selection
In short: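 Peptides of 20 random codons, each fused to Sup35N, were expressed in psi-negative yeast. Cells were induced with 100 μM copper sulfate for 24 hours and grown 7 days at 30°C on medium lacking adenine and uracil, and plasmid inserts before and after selection were Illumina-sequenced. Nucleation scores are DiMSum log enrichments of output over input reads, centred on the mode score of non-aggregating sequences, and sequences under 100 input reads were excluded.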

Amyloid nucleation score, inactive:
QEWVRYYYFVLYFNYVNGSW
PGRYFMHLLELV
LVRSNGC
VDYFW
MTLFVSDTVRSLGNGNWA
ANESMWYSLMLTVFVLAGCM
GLLSR
STVEENIY
VTRQLYVMGFVGHDEEGVVS
FFRRSRYEYKSFGVNNVMNG
DLMLWKNFSLFTRESRGFAN
DSNLRLYALTRCHKALHVMS
PMHGGTSSQSYNNLLRRSVK
ARASVFAMGDTPLWSG
PVLARYL
CYHAFRCSGLARACVENINW
GTSMSRPDIVTDKVMPFLRR
GCFSCVCLP
MHSISV
VVDKILITINRSLLLSGADN
FKIMD
GYDAGAWPRWRRSIWVHGYG
GPNRYW
TYRCYELVGDTVC
MKGVLAKNGYIDGVLGNTAM
KMTLYIFCLAFMLWESNQII
LDFDVGI
FWKNHRAIHSMFQRHLRHTF
TLFADNAVQIVLERSLRGCG
KGSTLLSNIARMVVTCKARP
AYWESNSIPR
HTRLAPWSMDEGRAV
TRHLMLVLSWFLHRKNISRG
SLGKPSHREFYDFVVAAKTT
AFYYWVDEMVSLNIRLSFYN
WRVFVIRYKKSMYAETGKVK
ACTIMWSSLKSIT
WGLGFFAI
TVVDLLVRYSAIGSCVFSVT
FDPYFVFHNWVLYWFRVFTF
MGRISVLPYLKFSYAIWY
EWCSMYILSC
SYLESISHPALESARVYVST
WLRLIA
RLYLVGYRLIRCRFGILGAC
NFGHMY
HLGFF
YVSSAILRNRVLCHCYFTML
PNWEWIVYKMLGTFVHSWVM
EAVKWPHMILPHCTHMWIYW
CRWNVNNFPHLFITKMMFRY
VSSLR
LFYIPFCMSFWTSKDRNA
LAGCNPLASARFVWVI
APAKTYIACC
KMWCNGMAISLHVRRLCQV
YHGVLRWSKSTFAAHYPVTA
MHTFSDQSISVEQRTCLQVR
LPSGFLGPLIPVESQIPRTQ
RFYGDM
SLHNM
RRLCRYCDVILRNFMHKIQW
TERYATNSLCSGIKMALRQV
SAFCCRSMSGVEFLRAFVSK
VSHLAQHCNRLLLVSMLLGA
ITGHSVLCWGNSSSTMCEMG
PVQPTEARNR
TIMETALDLSMHPMNVH
SHWYIYSYSVDPCAGHAAVW
CAITAQARV
STVQLYSPIQESVVTVFTNK
VSHSAFVLNSCERE
MVCFYHTGELPDWENR
LKVVYGSLALPSFKFIWQAE
YIFGNFRHTSGGYCVLSVLK
VDLAIMLVDLLGHSKMYQTG
LGFESCVHRGKIKAVVMTST
RFDIK
MELCTLMCHYVVYSVVNWTY
MGLIERLWWSTPIKF
NSFFKGGWMHPG
MYTCLVPSSLK
YRGPVGIDSGVRS
CVILYLTGKSFIVLSIVVAE
IMSKVASDALIPVTSSMSTG
TSAMSYFGDIYWCRKFRRVG
WVGGPQNQRPANWTFGMWFH
PVLSDNYLTDFAFCYQYYMS
ILCLVAVLGASRGYVMAEWY
EALTLTARR
QNHSNVGTFDDSA
SVIAMYQFVYYYVSKMVNID
VWKIHYCFDVFIMV

Amyloid nucleation score, 0.848 ± 0.19:
EVVLFKYVVL

Amyloid nucleation score, 1.76 ± 0.064:
ECTDFYGTGTFCFGSWRLSY

Amyloid nucleation score, 1.93 ± 0.1:
CLYFY

Amyloid nucleation score, -0.557 ± 1:
GTDWCTRHMPGIDPCDSVVC

Amyloid nucleation score, -0.702 ± 1:
LNMKTV

Amyloid nucleation score, 0.66 ± 0.23:
SVDCYCTKKTYMQWSGSVRH

Amyloid nucleation score, 2.28 ± 0.081:
VNILVFLCFAPSLSSRYWWL

Amyloid nucleation score, -0.224 ± 0.73:
TPLADN

Amyloid nucleation score, 1.81 ± 0.058:
SVNIMVMTVMNY

Amyloid nucleation score, 1.43 ± 0.074:
PMAELIWDLVLRLKLSNKKR

Amyloid nucleation score, -0.352 ± 0.75:
YFGYRLLAAERSSERVICFK

Amyloid nucleation score, 1.73 ± 0.077:
VYVCYIL

Amyloid nucleation score, 2.11 ± 0.078:
ISLLYVFMLNR

Amyloid nucleation score, 1.15 ± 0.13:
LVVYYYLCACNYGARRFSWC

Amyloid nucleation score, 0.085 ± 0.32:
SKVRTVGRLEVSVRIVKTGL

Amyloid nucleation score, -0.559 ± 0.94:
VSCSPMYEEYRHGNLAEYNE

Amyloid nucleation score, 0.014 ± 0.31:
RRCPYIRESIYKFSLAKCSF

Amyloid nucleation score, 0.294 ± 0.39:
KIYGIPYCTRVGCNLWPGAG

Amyloid nucleation score, 0.216 ± 0.56:
AYLLSIANCFSAVYLHPSDS

Amyloid nucleation score, 0.745 ± 0.2:
KFMIVVKCSM

Amyloid nucleation score, 0.313 ± 0.54:
CLTLYRHQ

Amyloid nucleation score, 0.092 ± 0.96:
MKQSDLGLKGRCDNCQFGRS

Amyloid nucleation score, 1.29 ± 0.14:
PQDRFSE

Amyloid nucleation score, 1.39 ± 0.089:
HSVASDYRTAFLLSHT

Amyloid nucleation score, 0.535 ± 0.58:
RYGFDRIPIFLLNVAMNVYP

Amyloid nucleation score, 0.023 ± 0.26:
HPVGACCLQLRFGLYCICVA

Amyloid nucleation score, 1.91 ± 0.062:
CLIFDLSRKKYWVKRDRKAW
